Drawing on article PMC9775220, “Distal Mutations Shape Substrate-Binding Sites during Evolution of a Metallo-Oxidase into a Laccase” (ACS Catalysis, 2022), this text covers Km and kcat for 11 proteins.

Substitutions are numbered along the chain they refer to. In names and notes the source's numbering stands.

Substrate in the data set: CCn1c(=NN=c2sc3cc(S(=O)(=O)O)ccc3n2CC)sc2cc(S(=O)(=O)O)ccc21
Nature of the data set: purified protein. The following applies: pH 4, 40 °C. Type of data set: biochemical, Aquifex aeolicus.

Where [1] appears, read: 2F4-loop 5 (Met-loop cut to five residues).

B1: McoA (wild type) (Aquifex aeolicus VF5; DEL329-352/F55S/I199T/I441L/M449T/P58S/R471G) (protein)
chain: LSKQSLNIPGYSLFSDGQRVSITAKWTTLEVIPGKSTDMLVYEIDNEYNPVIFLRKGQTFSADFVNNSGEDSIIHWHGFRAPWKSDGHPYYAVKDGETYSYPDFTIIDRSGTYFYHPHPHGRTGYQVYYGLAGMIIIEDEDEDNLKQALDLEYGVTDIPLIIQDKTFDSSGQLVYNPMGHMGFWGDTILVNLTPNPYMDVERKIYRFRILNGSNARPYRLALLRGNQRMRFWVIGVEGGLLDTPKEVNEILVAPGERIDILVDFRDASVNDVIKLYNFPHNLIGMMGMADNSEFEVMEFRVTKDSAYDKSIPQRLSEVTPINTDGAQVQRITLGMRRMVFTINGETWEDGYANPQDINNPKVLFEQNNGDVVILEYVNNTGTYHPMHIHGFQFQVLERSLGPLGATDLGWKDTVIVAPMETVRIAVDMSHPYNEHQIYLLHCHILEHHDEGMMVNYRVNA
notes: 43-residue N-terminal Tat signal peptide removed in 2B3wsp and the shuffling parents (stated for wild type); expressed in E. coli Tuner delta-cueO from pET-21a(+); purified, Cu-loaded in vitro; monomer
Consider B1, for which, under setting [1], the Michaelis-Menten constant (Km) (commonly the substrate concentration at which the rate is half of its maximum) turned out to be 3800 ± 600 µM; the kcat (usually the number of substrate molecules converted per active site and unit of time at saturation) amounted to 133 ± 20 s⁻¹.

B2: McoA (wild type) (Aquifex aeolicus VF5; F55S/I199T/I441L/M449T/P58S/R471G) (protein)
chain: LSKQSLNIPGYSLFSDGQRVSITAKWTTLEVIPGKSTDMLVYEIDNEYNPVIFLRKGQTFSADFVNNSGEDSIIHWHGFRAPWKSDGHPYYAVKDGETYSYPDFTIIDRSGTYFYHPHPHGRTGYQVYYGLAGMIIIEDEDEDNLKQALDLEYGVTDIPLIIQDKTFDSSGQLVYNPMGHMGFWGDTILVNLTPNPYMDVERKIYRFRILNGSNARPYRLALLRGNQRMRFWVIGVEGGLLDTPKEVNEILVAPGERIDILVDFRDASVNDVIKLYNFPHNLIGMGMIGMRMGMGMERGMGMGNGMNMDMGMADNSEFEVMEFRVTKDSAYDKSIPQRLSEVTPINTDGAQVQRITLGMRRMVFTINGETWEDGYANPQDINNPKVLFEQNNGDVVILEYVNNTGTYHPMHIHGFQFQVLERSLGPLGATDLGWKDTVIVAPMETVRIAVDMSHPYNEHQIYLLHCHILEHHDEGMMVNYRVNA
notes: as for B1
Consider B2, for which, for the setting “evolved variant 2F4”, the Km amounted to 1500 ± 400 µM and the catalytic constant (kcat) was 273 ± 9 s⁻¹.

B3: McoA (wild type) (Aquifex aeolicus VF5; P58S) (protein)
chain: B2 chain with S12F, T156I, L398I, T406M, G428R
notes: as for B1
Turning to B3, under “wild-type background”, the Km came out at 2500 ± 200 µM and the turnover number (kcat) was 75 ± 3 s⁻¹.

B4: McoA (wild type) (Aquifex aeolicus VF5; M449T) (protein)
chain: B2 chain with S12F, S15P, T156I, L398I, G428R
notes: as for B1
For B4, where the note is “wild-type background”, the Michaelis constant (Km) is 1000 ± 100 µM and the turnover number (kcat) was determined as 27 ± 1 s⁻¹.

B5: McoA (wild type) (Aquifex aeolicus VF5; F55S/I199T/I441L/M449T/P58S) (protein)
chain: B2 chain with G428R
notes: as for B1
Regarding B5, where the note is “reversion G471R in 2F4”, the Km stood at 6000 ± 1000 µM and the turnover number (kcat) was determined as 235 ± 9 s⁻¹.

B6: McoA (wild type) (Aquifex aeolicus VF5; R471G) (protein)
chain: B2 chain with S12F, S15P, T156I, L398I, T406M
notes: as for B1
With B6, where the note is “wild-type background”, the Km was 2300 ± 200 µM and the kcat is 98 ± 4 s⁻¹.

B7: McoA (wild type) (Aquifex aeolicus VF5; F55S/I199T/I441L/P58S/R471G) (protein)
chain: B2 chain with T406M
notes: as for B1
For the protein B7, where the note is “reversion T449M in 2F4”, the Michaelis-Menten constant (Km) was determined as 3100 ± 900 µM and the catalytic constant (kcat) came to 99 ± 8 s⁻¹.

B8: McoA (wild type) (Aquifex aeolicus VF5) (protein)
chain: B2 chain with S12F, S15P, T156I, L398I, T406M, G428R
notes: as for B1
For the protein B8, the Km is 1300 ± 200 µM and the turnover number (kcat) worked out at 25 ± 3 s⁻¹.

B9: McoA (wild type) (Aquifex aeolicus VF5; F55S) (protein)
chain: B2 chain with S15P, T156I, L398I, T406M, G428R
notes: as for B1
Regarding B9, where the note is “wild-type background”, the Km came to 2400 ± 400 µM and the kcat was 67 ± 4 s⁻¹.

B10: McoA (wild type) (Aquifex aeolicus VF5; I441L) (protein)
chain: B2 chain with S12F, S15P, T156I, T406M, G428R
notes: as for B1
On to B10, for which, under “wild-type background”, the Km was determined as 1500 ± 200 µM and the kcat turned out to be 79 ± 5 s⁻¹.

B11: McoA (wild type) (Aquifex aeolicus VF5; I199T) (protein)
chain: B2 chain with S12F, S15P, L398I, T406M, G428R
notes: as for B1
In the case of B11, under “wild-type background”, the Michaelis-Menten constant (Km) came to 900 ± 200 µM and the kcat was 27 ± 5 s⁻¹.
